What was measured:
native gel or EMSA = molecular target: the molecule itself; assay: native gel or EMSA
[1] = molecular target: the molecule itself

B1: C-terminal PrP domain (mouse PrP 120–231) (domain or fragment)
chain: not shown
- binding result (native gel or EMSA): binds

B2: Syrian hamster PrP90–232 (domain or fragment)
chain: not shown
- binding result (native gel or EMSA): binds

B3: full-length PrP (mouse PrP 23–231) (natural protein)
chain: not shown
- binding result (native gel or EMSA): binds

B4: PrP-like ectodomain of ZIP5 (domain or fragment)
chain: WVGGSVPNLGPAEQEQNHYLAQLFGLYGENGTLTAGGLARLLHSLGLGRVQGLRLGHHEPPTGRAAPTSGDNFTHRLQEPELSVDIWAGMPLGPSGWGDQEESKAPDLHGSGPSSLDLFQRLLLLDHSLADHLNEDCLNGSQLLVNFGLSPVAPLTPRQFALLCPALLYQIDSRVCIKTPAPAPPGDVLSA
- stoichiometry N [1]: 2
